Laboratory results reported in the RNAGym collection of RNA variant scans (doi:10.1073/pnas.2313332121).

B1: TPR t1 (parent)
chain: GACCAAUCUGCCCUCAGAGCUCGAGAACAUCUUCGGAUGCAGAGGAGGCAGGCUUCGGUGGCGCGAUAGCGCCAACGUCCUCAACCUCCAAUGCAUCCCACCACAUGAUGAUGCCUGAAGAGCCUUGGUUUUUUG

Variants of: B1
Assay: polymerase ribozyme fitness, log enrichment relative to wild type (log ratio); higher = more active; in vitro selection for triplet polymerase activity
Method in brief: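 PCR was used to build mutant libraries for each subunit of a heterodimeric triplet polymerase ribozyme, which were then transcribed. A single in vitro selection round, in triplicate, used a frozen incubation at −7 °C and recovered extended constructs by gel excision, streptavidin beads and RT-PCR. Fitness is the logarithm of genotype enrichment relative to wild-type enrichment, averaged over replicates with inverse-variance weights. The logarithm is base 2, and after Illumina sequencing only genotypes with ≥10 input reads and ≥1 read per output were kept.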

Row | Variant | polymerase ribozyme fitness (log ratio)
1 | C8U A29U C62U A83C C88G A119G | -2.75
2 | C73A U92G | -2.07
3 | C20A C56A C72G A90G | -4.82
4 | A16U G47U G60U U112G | -1.75
5 | C4G G44U U96A A100U | -3.73
6 | C62U C70G C72U G120U | -2.44
7 | G19U C53G U54A G61A C124A G128A | -3.82
8 | A6U G48C | -0.598
9 | A66U C72U C115G | -2.47
10 | C82G C88G | -1.26
11 | C20U A91G | -2.03
12 | A24G C70G C97A A121G | -5.13
13 | A50G G63A | -0.747
14 | A83C | -0.225
15 | C53A C80U U106A G135U | -3.96
16 | A74U U78G U131G | -1.29
17 | C70A C80G C82G | -7.42
18 | C4G U9C U112C G117A | -1.01
19 | G71U C73G A95C C124U G128U U129C | -7.5
20 | C13A A18G C73A | -4.96
21 | C8A A18C U21G A68G | -6.09
22 | G61A U78C | -0.183
23 | G36U C53U G61A U96G | -2.34
24 | U33C A90C | -6.14

Row | Variant | polymerase ribozyme fitness (log ratio)
25 | C34U C53U C56U | -5.01
26 | C62G C76G U112A | -3.99
27 | G45A G63C C82U | -0.994
28 | C28U G71U C82A | -3.3
29 | C8A C72U U87A C99U | -2.56
30 | G48U C56A | -1.75
31 | U9G G36U G57U C62U | -1.11
32 | G58C A118G G120C | -0.431
33 | C56U A111C | -0.414
34 | G69U C114A | -0.78
35 | C4G G44U C88A C124A | -1.23
36 | G10A G71A C80A | -4.78
37 | A2G C28U G110U | -2.63
38 | A29C A90G G113U C114U | -3.29
39 | A37C C123G | 0.773
40 | A29U A119G | -0.662
41 | C86A A111C | 0.315
42 | A105U U116C | -3.7
43 | G51A G127A | -3.6
44 | G35A C72G U112C | -2.35
45 | C13U C56G C62U A74G U96A A100C | -4.8
46 | C3G C72G | -2.06
47 | C13U G35C | -3.79
48 | C40A G42U G45U C56G C73U | -4.17

Row | Variant | polymerase ribozyme fitness (log ratio)
49 | C11U G52A G57U A95U | -1.32
50 | C12U A27G C40U C56U C86U C102U | -3.62
51 | A41C C62U G110A | -3.63
52 | G48A U87A G120C C124G | 0.521
53 | G48U C88A | -0.373
54 | A29U G48A G63C A111C | -2.36
55 | G60A U125A | -0.369
56 | U7A C8A G19U C97G A105G C124U | -7.51
57 | C12A A26C C56G G63U C89G G107A U116C | -7.06
58 | C34U C40U G42A A43G C104A U109A G135A | -4.93
59 | A29G C53G U106A G117C | -3.33
60 | A46U A66C | -2.07
61 | C12U C34A C53U C72U | -2.62
62 | C3U C34A C73A | -2.99
63 | A26U C79G C124U | -4.91
64 | C3A U33A G48U A121C C124G | -4.93
65 | U59C U78G C104U G117A | -2.35
66 | C8U C22G U55C C73A C98A A111G U112A | -6.04
67 | A24G U54A A68U G71A U112A | -8.22
68 | A50C G77U C115G | -1.98
69 | A26U C49U A66G A84C C124G | -4.9
70 | C72A C123G | 1.56
71 | U7A G60U | 0.564
72 | C4G U14A C73G G120A | -3.16

Row | Variant | polymerase ribozyme fitness (log ratio)
73 | A27G A105C | -3.41
74 | C56U G69A G113U C123G U130G | -6.22
75 | G48A C88G | -0.075
76 | U9C C13G C28G G45U G61A | -2.49
77 | G19C C40U G48U G110C | -6.52
78 | C56U C123A U126A | 0.177
79 | C12G C28U | -0.928
80 | C8A C28G C53A | -2.01
81 | C56U C79G C102U C104U | -4.64
82 | G52U G63A C101G C114G | -6.25
83 | G71U G113C C114U G128A | -3.3
84 | A29U A84C U87C U112C | -0.813
85 | C73G U133A | -1.27
86 | A2C C4U U9A C76U | -0.884
87 | G52U C56A C99U | -4.58
88 | G113A U134G G135U | -1.24
89 | C12A G52A A91G | -1.2
90 | C12A A74U | -0.922
91 | G93A G135C | -1
92 | C3U C56U G69C C76G C115U G127U | -4.79
93 | C8G A91U | -1.17
94 | U7G C72U U81A A91C G107C U112C | -5.54
95 | G52U G77U A90U A121U U130A | -0.805
96 | U54G U55A G93C C115G | -5.45

Row | Variant | polymerase ribozyme fitness (log ratio)
97 | U21G G36A | -2.46
98 | A5G C13U A103U | -4.92
99 | A16U C62G C123A | -3
100 | G10A C15G G61U | -3.16
101 | A37G G44C | -0.927
102 | G60C C114A C115G G122C U133C | -4.6
103 | C3A C4U C72U C123G | -0.302
104 | U9C G48U G52C C94U | -2.36
105 | A2U A6G G17U G39U G52U C73G | -5.54
106 | C20A G61A | -2.67
107 | C12G C34G G69U A83C | -3.04
108 | G71C C124U | 0.16
109 | C3U G47A C62U A105U A118G | -3.83
110 | A37G U55A C73U A83C A90U U125A | -2.61
111 | C3U U7A U54C A95G U112A | 0.973
112 | C49U C72U C115U C123G | -2.4
113 | G19C G36A G48A C82U C124A | -3.64
114 | C34G C53U G60A U87G G110C | -7.9
115 | C40U G42C G63U C85U U130A | -5.03
116 | U112A G120A | 0.565
117 | C12U C13G C70G | -2.49
118 | C3G C49G | -3.17
119 | C3G C11U C97A G120C | -5.66
120 | C8U G51A C64U C104G G120C | -6.76

Row | Variant | polymerase ribozyme fitness (log ratio)
121 | U54A C94A | -1.16
122 | A6U C70A A91G | -2.94
123 | U9C C72G | 0.104
124 | G17A G120U | -1.62
125 | G110C G117U | -5.43
126 | A50U U87A | -1.09
127 | G23U A26C A43U G63U G93A G117C | -6.53
128 | C22U A74C C79U A121U | -2.29
129 | U21A C53G U54G U87A | -4.55
130 | G45C A50U | -2.42
131 | G71A A84C | -0.48
132 | C8G U14G G36U C62U C80U G120A | 0.635
133 | C22U A50C C102U C124G | -5.01
134 | C80U G93A | -1.52
135 | G39U C56A A84C G113U | -4.13
136 | C56A C101G | -1.76
137 | A6C A16U C70U C104A | -4.73
138 | C8U C22U G52U G60C | -4.56
139 | A50C U59C C86U | -0.825
140 | G60U A90U | -1.1
141 | A50C C86G G127U | -2.12
142 | G44U C56A C102U | -3.03
143 | C56U G110C | -3.43
144 | G44U G63A U78A G117C | -6.55

Row | Variant | polymerase ribozyme fitness (log ratio)
145 | A6C C73G | -0.957
146 | C40G G77A C97U | -4.09
147 | A90U U133G | -1.46
148 | A2U G110U | -2.47
149 | C72U C123U | 0.155
150 | A50C C53U C97U | -1.01
151 | C56A A83G G135U | -2.3
152 | G60A A90C | -0.936
153 | U7G C124A | 1.74
154 | G36U C70G C89U | -5.64
155 | C13U C34U | -4.26
156 | G63C U92A U132A | -3.33
157 | C28A U54A G61U G110U | 2.18
158 | G48U C114G G117C G120C | -6.82
159 | G51U G61A C64U U125G | -6.13
160 | G17U G48A A50U G61C G93A U106A | -5.21
161 | C98A A111U | -5.78
162 | A6C C53G C72A C123U U133C | 0.968
163 | C13A C114U | -2.86
164 | C28U C82A C94A U125G | -4.37
165 | C49U C102G C104A C124A U130A | -4.4
166 | G51A G57U A83G A84U A105G U130G | -6.12
167 | C8A U9G | -0.0103
